Measurements taken from publication PMC6241527.

Key:
[1] = target: H1 hemagglutinin (A/Solomon Islands/3/06) (influenza A virus (A/Solomon Islands/3/06, H1)); assay: crystal structure
[2] = target: H7 hemagglutinin (A/Shanghai/2/13) (influenza A virus (A/Shanghai/2/13, H7)); assay: crystal structure

Substance | stoichiometry N [1] | stoichiometry N [2]
H1 hemagglutinin (A/Solomon Islands/3/06) (natural protein) | 3 | 
H7 hemagglutinin (A/Shanghai/2/13) (natural protein) |  | 3
